According to IntAct's records for PubMed 22118466:

B1: Phosphatidylinositol-binding clathrin assembly protein (Rattus norvegicus (Rat)), O55012 (parent)
chain: MSGQSLTDRITAAQHSVTGSAVSKTVCKATTHEIMGPKKKHLDYLIQCTNEMNVNIPQLADSLFERTTNSSWVVVFKSLITTHHLMVYGNERFIQYLASRNTLFNLSNFLDKSGLQGYDMSTFIRRYSRYLNEKAVSYRQVAFDFTKVKRGADGVMRTMNTEKLLKTVPIIQNQMDALLDFNVNSNELTNGVINAAFMLLFKDAIRLFAAYNEGIINLLEKYFDMKKNQCKEGLDIYKKFLTRMTRISEFLKVAEQVGIDRGDIPDLSQAPSSLLDALEQHLASLEGKKIKDSTAASRATTLSNAVSSLASTGLSLTKVDEREKQAALEEEQARLKALKEQRLKELAKKPHTSLTTAASPVSTSAGGIMTAPAIDIFSTPSSSNSTSKLPNDLLDLQQPTFHPSVHAMSAAPQVASTWGDAVDDAIPSLNPFLTKSSGDVHLPISSDVSTFTTRTPTHEMFVGFSPSPVTQPHPSAGLNVDFESVFGNKSTNVAVDSGGGLLKPTVASQNQSLPVAKLPPNKLVSDDLDSSLANLVGNLGIGNGTTKNDVSCSQPGEKKLTGGSNWQPKVAPTTAWSAATMAPPVMAYPATTPTGMIGYGIPPQMGSVPVMTQPTLIYSQPVMRPPNPFGPVPGAQIQFM
partner: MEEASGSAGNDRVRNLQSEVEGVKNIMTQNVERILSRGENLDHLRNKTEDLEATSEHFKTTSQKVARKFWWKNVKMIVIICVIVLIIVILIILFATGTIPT
B2: Vesicle-associated membrane protein 8 (Mus musculus), O70404 (parent)
chain: B1 partner
partner: B1 chain

Variants of: B1
Details: with vamp8_mouse Vamp8, O70404

| effect of a mutation on the interaction | Variant |
| --- | --- |
| disrupting interaction | F240A |
| disrupting interaction | D224K |
| disrupting interaction | L219S |

More lines, now with the values behind:

| Variant | effect of a mutation on the interaction |
| --- | --- |
| I247D | disrupting interaction |
| L251S | disrupting interaction |

Variants of: B1
Details: with vamp8_mouse Vamp8, O70404
Remark: another data set of the same source

| effect of a mutation on the interaction | Variant |
| --- | --- |
| disrupting interaction | M244K |

Variants of: B2
Details: with pical_rat Picalm, O55012

| effect of a mutation on the interaction | Variant |
| --- | --- |
| disrupting interaction | MEEASGSAGNDRVRNLQSEVEGVANIATQNVERILSRGENLDHLRNKTEDLEATSEHFKTTSQKVARKFWWKNVKMIVIICVIVLIIVILIILFATGTIPT [K24A;M27A] |
| disrupting interaction | MEEASGSAGNDRVRNPQSEVEGPKNIMTQNVERILSRGENLDHLRNKTEDLEATSEHFKTTSQKVARKFWWKNVKMIVIICVIVLIIVILIILFATGTIPT [L16P;V23P] |
